± gives the standard deviation of the averaged measurements.
Test: total protein half-life in vivo (active degradation + dilution); higher = more stable protein
[1] = E. coli NCM3722 delta-clpP delta-lon delta-hslV, growth: N-lim chemostat, doubling time 6 h
[2] = E. coli NCM3722 delta-hslV, growth: N-lim chemostat, doubling time 6 h
[3] = E. coli NCM3722 delta-smpB, growth: N-lim chemostat, doubling time 6 h
[4] = wild type E. coli NCM3722, growth: C-lim chemostat, doubling time 3 h
[5] = wild type E. coli NCM3722, growth: C-lim chemostat, doubling time 6 h
[6] = wild type E. coli NCM3722, growth: C-lim chemostat, doubling time 12 h
[7] = wild type E. coli NCM3722, growth: N-lim chemostat, doubling time 6 h
[8] = wild type E. coli NCM3722, growth: N-lim chemostat, doubling time 12 h
[9] = wild type E. coli NCM3722, growth: P-lim chemostat, doubling time 6 h
[10] = wild type E. coli NCM3722, growth: P-lim chemostat, doubling time 12 h
[11] = E. coli NCM3722 delta-clpP, growth: N-lim chemostat, doubling time 6 h
[12] = E. coli NCM3722 delta-lon, growth: N-lim chemostat, doubling time 6 h

Sequence	total protein half-life in vivo [1] [h]	total protein half-life in vivo [2] [h]	total protein half-life in vivo [3] [h]	total protein half-life in vivo [4] [h]	total protein half-life in vivo [5] [h]	total protein half-life in vivo [6] [h]	total protein half-life in vivo [7] [h]	total protein half-life in vivo [8] [h]	total protein half-life in vivo [9] [h]	total protein half-life in vivo [10] [h]	total protein half-life in vivo [11] [h]	total protein half-life in vivo [12] [h]
MDIPRIFTISESEHRIHNPFTEEKYATLGRVLRMKPGTRILDLGSGSGEMLCTWARDHGITGTGIDMSSLFTAQAKRRAEELGVSERVHFIHNDAAGYVANEKCDVAACVGATWIAGGFAGAEELLAQSLKPGGIMLIGEPYWRQLPATEEIAQACGVSSTSDFLTLPGLVGAFDDLGYDVVEMVLADQEGWDRYEAAKWLTMRRWLEANPDDDFAAEVRAELNIAPKRYVTYARECFGWGVFALIAR	5.64 ± 0.16	5.71 ± 1.8	3.54 ± 0.12	2.7 ± 0.65	4.93 ± 0.38	9.89 ± 1.2	3.97	8.49	7.11	12.41 ± 0.083		
MSVMLQSLNNIRTLRAMAREFSIDVLEEMLEKFRVVTKERREEEEQQQRELAERQEKISTWLELMKADGINPEELLGNSSAAAPRAGKKRQPRPAKYKFTDVNGETKTWTGQGRTPKPIAQALAEGKSLDDFLI [P0ACG1]	7.04 ± 1.3	6.63 ± 0.19	5.86 ± 0.72	3 ± 0.032	5.941 ± 0.033	8.33 ± 0.14	4.94 ± 0.73	12 ± 4	5.04 ± 1.5	11 ± 0.95	6.38 ± 0.2	7.2 ± 0.27
MIKLSNITKVFHQGTRTIQALNNVSLHVPAGQIYGVIGASGAGKSTLIRCVNLLERPTEGSVLVDGQELTTLSESELTKARRQIGMIFQHFNLLSSRTVFGNVALPLELDNTPKDEVKRRVTELLSLVGLGDKHDSYPSNLSGGQKQRVAIARALASNPKVLLCDEATSALDPATTRSILELLKDINRRLGLTILLITHEMDVVKRICDCVAVISNGELIEQDTVSEVFSHPKTPLAQKFIQSTLHLDIPEDYQERLQAEPFTDCVPMLRLEFTGQSVDAPLLSETARRFNVNNNIISAQMDYAGGVKFGIMLTEMHGTQQDTQAAIAWLQEHHVKVEVLGYV	6.5123 ± 0.0016	6.04 ± 0.08	5.61 ± 0.26		5.76 ± 0.38	9.681 ± 0.078	5.85 ± 0.51	12.67 ± 0.12	6.3 ± 0.86	12.1 ± 0.42	6.41 ± 0.39	6.66 ± 0.25
MSEVEFSHEYWMRHALTLAKRAWDEREVPVGAVLVHNNRVIGEGWNRPIGRHDPTAHAEIMALRQGGLVMQNYRLIDATLYVTLEPCVMCAGAMIHSRIGRVVFGARDAKTGAAGSLMDVLHHPGMNHRVEITEGILADECAALLSDFFRMRRQEIKAQKKAQSSTD	5.35 ± 0.49	> 8							> 8	10.7 ± 0.33		4.63
MKKNRAFLKWAGGKYPLLDDIKRHLPKGECLVEPFVGAGSVFLNTDFSRYILADINSDLISLYNIVKMRTDEYVQAARELFVPETNCAEVYYQFREEFNKSQDPFRRAVLFLYLNRYGYNGLCRYNLRGEFNVPFGRYKKPYFPEAELYHFAEKAQNAFFYCESYADSMARADDASVVYCDPPYAPLSATANFTAYHTNSFTLEQQAHLAEIAEGLVERHIPVLISNHDTMLTREWYQRAKLHVVKVRRSISSNGGTRKKVDELLALYKPGVVSPAKK [P0AEE8]	5.89 ± 0.51	5.84 ± 0.34	4.51 ± 0.34	2.94 ± 0.05	5.65 ± 0.72	10.2 ± 0.14	4.65 ± 0.55	10.1 ± 0.92	5.39 ± 0.27	10.9 ± 0.14	4.15 ± 0.098	4.29 ± 2.2
MTPVKVWQERVEIPTYETGPQDIHPMFLENRVYQGSSGAVYPYGVTDTLSEQKTLKSWQAVWLENDYIKVMILPELGGRVHRAWDKVKQRDFVYHNEVIKPALVGLLGPWISGGIEFNWPQHHRPTTFMPVDFTLEAHEDGAQTVWVGETEPMHGLQVMTGFTLRPDRAALEIASRVYNGNATPRHFLWWANPAVKGGEGHQSVFPPDVTAVFDHGKRAVSAFPIATGTYYKVDYSAGVDISRYKNVPVPTSYMAEKSQYDFVGAWCHDEDGGLLHVANHHIAPGKKQWSWGHSEFGQAWDKSLTDNNGPYIELMTGIFADNQPDFTWLDAYEEKRFEQYFLPYHSLGMVQNASRDAVIKLQRSKRGIEWGLYAISPLNGYRLAIREIGKCNALLDDAVALMPATAIQGVLHGINPERLTIELSDADGNIVLSYQEHQPQALPLPDVAKAPLAAQDITSTDEAWFIGQHLEQYHHASRSPFDYYLRGVALDPLDYRCNLALAMLEYNRADFPQAVAYATQALKRAHALNKNPQCGQASLIRASAYERQGQYQQAEEDFWRAVWSGNSKAGGYYGLARLAARNGNFDAGLDFCQQSLRACPTNQEVLCLHNLLLVLSGRQDNARVQREKLLRDYPLNATLWWLNWFDGRSESALAQWRGLCQGRDVNALMTAGQLINWGMPTLAAEMLNALDCQRTLPLYLQASLLPKAERGELVAKAIDVFPQFVRFPNTLEEVAALESIEECWFARHLLACFYYNKRSYNKAIAFWQRCVEMSPEFADGWRGLAIHAWNKQHDYELAARYLDNAYQLAPQDARLLFERDLLDKLSGATPEKRLARLENNLEIALKRDDMTAELLNLWHLTGQADKAADILATRKFHPWEGGEGKVTSQFILNQLLRAWQHLDARQPQQACELLHAALHYPENLSEGRLPGQTDNDIWFWQAICANAQGDETEATRCLRLAATGDRTINIHSYYNDQPVDYLFWQGMALRLLGEQQTAQQLFSEMKQWAQEMAKTSIEADFFAVSQPDLLSLYGDLQQQHKEKCLMVAMLASAGLGEVAQYESARAELTAINPAWPKAALFTTVMPFIFNRVH				3.06 ± 0.34	4.96 ± 0.015	8.56 ± 1.8				7.32		
MIISAASDYRAAAQRILPPFLFHYMDGGAYSEYTLRRNVEDLSEVALRQRILKNMSDLSLETTLFNEKLSMPVALAPVGLCGMYARRGEVQAAKAADAHGIPFTLSTVSVCPIEEVAPAIKRPMWFQLYVLRDRGFMRNALERAKAAGCSTLVFTVDMPTPGARYRDAHSGMSGPNAAMRRYLQAVTHPQWAWDVGLNGRPHDLGNISAYLGKPTGLEDYIGWLGNNFDPSISWKDLEWIRDFWDGPMVIKGILDPEDARDAVRFGADGIVVSNHGGRQLDGVLSSARALPAIADAVKGDIAILADSGIRNGLDVVRMIALGADTVLLGRAFLYALATAGQAGVANLLNLIEKEMKVAMTLTGAKSISEITQDSLVQGLGKELPAALAPMAKGNAA	6.01 ± 0.3	4 ± 0.14	3.68 ± 0.38	2.28 ± 0.062	3.76 ± 0.41	5.29 ± 0.5	3.73 ± 0.068	6.57 ± 0.92	3.28 ± 0.48	6.38 ± 0.44	5.992 ± 0.053	3.3 ± 0.036
MGTTTMGVKLDDATRERIKSAATRIDRTPHWLIKQAIFSYLEQLENSDTLPELPALLSGAANESDEAPTPAEEPHQPFLDFAEQILPQSVSRAAITAAYRRPETEAVSMLLEQARLPQPVAEQAHKLAYQLADKLRNQKNASGRAGMVQGLLQEFSLSSQEGVALMCLAEALLRIPDKATRDALIRDKISNGNWQSHIGRSPSLFVNAATWGLLFTGKLVSTHNEASLSRSLNRIIGKSGEPLIRKGVDMAMRLMGEQFVTGETIAEALANARKLEEKGFRYSYDMLGEAALTAADAQAYMVSYQQAIHAIGKASNGRGIYEGPGISIKLSALHPRYSRAQYDRVMEELYPRLKSLTLLARQYDIGINIDAEESDRLEISLDLLEKLCFEPELAGWNGIGFVIQAYQKRCPLVIDYLIDLATRSRRRLMIRLVKGAYWDSEIKRAQMDGLEGYPVYTRKVYTDVSYLACAKKLLAVPNLIYPQFATHNAHTLAAIYQLAGQNYYPGQYEFQCLHGMGEPLYEQVTGKVADGKLNRPCRIYAPVGTHETLLAYLVRRLLENGANTSFVNRIADTSLPLDELVADPVTAVEKLAQQEGQTGLPHPKIPLPRDLYGHGRDNSAGLDLANEHRLASLSSALLNSALQKWQALPMLEQPVAAGEMSPVINPAEPKDIVGYVREATPREVEQALESAVNNAPIWFATPPAERAAILHRAAVLMESQMQQLIGILVREAGKTFSNAIAEVREAVDFLHYYAGQVRDDFANETHRPLGPVVCISPWNFPLAIFTGQIAAALAAGNSVLAKPAEQTPLIAAQGIAILLEAGVPPGVVQLLPGRGETVGAQLTGDDRVRGVMFTGSTEVATLLQRNIASRLDAQGRPIPLIAETGGMNAMIVDSSALTEQVVVDVLASAFDSAGQRCSALRVLCLQDEIADHTLKMLRGAMAECRMGNPGRLTTDIGPVIDSEAKANIERHIQTMRSKGRPVFQAVRENSEDAREWQSGTFVAPTLIELDDFAELQKEVFGPVLHVVRYNRNQLPELIEQINASGYGLTLGVHTRIDETIAQVTGSAHVGNLYVNRNMVGAVVGVQPFGGEGLSGTGPKAGGPLYLYRLLANRPESALAVTLARQDAKYPVDAQLKAALTQPLNALREWAANRPELQALCTQYGELAQAGTQRLLPGPTGERNTWTLLPRERVLCIADDEQDALTQLAAVLAVGSQVLWPDDALHRQLVKALPSAVSERIQLAKAENITAQPFDAVIFHGDSDQLRALCEAVAARDGTIVSVQGFARGESNILLERLYIERSLSVNTAAAGGNASLMTIG	5.93 ± 0.7	2.39 ± 0.14	2.34 ± 0.047	2.08 ± 0.093	3.5 ± 0.57	4.276 ± 0.022	2.64 ± 0.23	3.8 ± 0.28	2.46 ± 0.32	4.246 ± 0.04	5.68 ± 0.72	2.81 ± 0.3

Reference: the supplement of paper PMC11246515
